Source: article PMC11705696

B1: AjATG4 Mut probe (dsDNA)
DNA 1: TTTACGGCGCGACAAAACGTCATCAACC
DNA 2: GGTTGATGACGTTTTGTCGCGCCGTAAA
B2: AjLC3 WT probe (dsDNA)
DNA 1: ATATCCTTTTGTCTGTTTTTCGGAAAG
DNA 2: CTTTCCGAAAAACAGACAAAAGGATAT
B3: AjLC3 Mut probe (dsDNA)
DNA 1: ATATCCTTTTGTGACACCTTCGGAAAG
DNA 2: CTTTCCGAAGGTGTCACAAAAGGATAT
B4: AjATG4 WT probe (dsDNA)
DNA 1: TTTACGGCGCCTGTTTACGTCATCAACC
DNA 2: GGTTGATGACGTAAACAGGCGCCGTAAA

These binders were tested against AjFoxO (rAjFoxO) (Apostichopus japonicus, UniProt A0A2G8KG36 1-567) (assay: EMSA).

Question: Does B1 bind?
Answer: no binding

Question: Does B2 bind?
Answer: binds

Question: Does B3 bind?
Answer: no binding

Question: Does B4 bind?
Answer: binds
